These results are taken from patent US20070248613A1 (MERCK, published 2007).

Values joined by “and” are separate entries in the source; they are usually repeats but may differ in a detail not shown here. Equal values may be shown once.

Test [1] addresses T1, 5-Helix (HIV-1).
T1 construct: also called HIV-1 gp41-derived 5-Helix; biotinylated 5-Helix
Briefly: phage ELISA on biotinylated peptide captured on streptavidin plates. Background: In an ELISA, binding on a coated surface is turned into a signal by an enzyme label.

Test [2] concerns the target gp41 of the HIV-1 NL4-3 envelope (HIV-1 strain NL4-3). Briefly: cell-based or functional assay.
Test [3] concerns the target gp41 of the HIV-1 MN-1 envelope (HIV-1 strain MN-1, UniProt P05877 514-856). Briefly: cell-based or functional assay.
The target of test [4] is T2, gp41 of the HIV-1 HXB2 envelope (HIV-1 strain HXB2, UniProt P04578 512-856). Kind of test: cell-based or functional assay.
Test [5] concerns the target gp41 of the HIV-1 89.6 envelope (HIV-1 strain 89.6). Kind of test: cell-based or functional assay.
The target in test [6] is gp41 of the HIV-1 BaL envelope (HIV-1 strain BaL). Briefly: cell-based or functional assay.
For test [7], the target named is T1, 5-Helix. Briefly: SPR (Biacore). On the technique in general: In SPR one partner is held on a chip, and binding of the other changes the refractive index at the surface.
The target in test [8] is T2, gp41 of the HIV-1 HXB2 envelope. Kind of test: cell-based or functional assay. The source holds these as a separate data set.
Test [9] deals with gp41 of the HIV-1 BaL envelope (HIV-1 strain BaL). Briefly: cell-based or functional assay. This is another data set of the same source.

B1: 5H/I1-BMV-B11 scFv (scFv)
scFv: QVQLVQSGAEVKKPGSSVKVSCKASGGTFSSYAISWVRQAPGQGLEWMGGIIPLFDTSNYAQNFQGRITITADKSTSTAYMELSSLRFEDTAIYYCARDNPLLLAMDVWGKGTTVTVSSGGGGSGGGGSGGGGSDIQMTQSPSTLSASIGDRVTITCRASEGIYHWLAWYQQKPGKAPKLLIYKASSLASGAPSRFSGSGSGTDFTLTISSLQPDDFATYYCQQYSNYPLTFGGGTKLEIK
notes: also called scFv B11
Take B1: the binding result in the test with 5-Helix [1] is recorded as “binds”.

B2: D5 IgG (antibody, V domains shown)
VH: QVQLVQSGAEVRKPGASVKVSCKASGDTFSSYAISWVRQAPGQGLEWMGGIIPIFGTANYAQKFQGRVTITADESTSTAYMELSSLRSEDTAIYYCARDNPTLLGSDYWGKGTLVTVSS
VL: DIQMTQSPSTLSASIGDRVTITCRASEGIYHWLAWYQQKPGKAPKLLIYKASSLASGAPSRFSGSGSGTDFTLTISSLQPDDFATYYCQQYSNYPLTFGGGTKLEIK
notes: also called D5 IgG4; D5 antibody
Take B2: the “D5 IgG IC50 (nM), single cycle infectivity assay” value in test [2] was determined as 226 nM; in test [3], 393 nM; in [4], 310 nM; in test [5] it was 1750 nM; in [6] it was 93 nM. In addition, binding with 5-Helix [7] was put at a Kd of 0.26 nM. The koff (commonly a measure of how fast the partners let go of each other) with 5-Helix [7] was found to be 0.0001 s⁻¹. Besides, the kon (commonly the rate constant with which the complex forms) in the test with 5-Helix [7] is 390000 M⁻¹ s⁻¹. The “IC50, single cycle infectivity assay against HIV-HXB2” value in [8] worked out at 261 nM.

B3: 5H/I1-BMV-D5 scFv (scFv)
scFv: QVQLVQSGAEVRKPGASVKVSCKASGDTFSSYAISWVRQAPGQGLEWMGGIIPIFGTANYAQKFQGRVTITADESTSTAYMELSSLRSEDTAIYYCARDNPTLLGSDYWGKGTLVTVSSGGGGSGGGGSGGGGSDIQMTQSPSTLSASIGDRVTITCRASEGIYHWLAWYQQKPGKAPKLLIYKASSLASGAPSRFSGSGSGTDFTLTISSLQPDDFATYYCQQYSNYPLTFGGGTKLEIK
notes: also called scFv D5
In the case of B3, the binding result with 5-Helix [1] was “binds”. Also, in [8], the “IC50 (printed TC50), single cycle infectivity assay against HIV-HXB2” value was determined as 238 nM; the “IC50, single cycle infectivity assay” value was 320 nM and 8 ug/ml. The “IC50, single cycle infectivity assay” value in test [9] was 600 nM and 15 ug/ml.
